Patent US20180112194A1, “MUTANT HUMAN DEOXYCYTIDINE KINASE” (Centre National De La Recherche Scientifique, priority 2015, published 2018)
Like-named read-outs stand apart in the source and are kept apart here.

What was measured:
human dCK [1] = target: T1, human dCK (Homo sapiens, UniProt P27707, E171K/E247K/L249M); settings: cited from earlier work
T1 construct: His tag (C, cleaved yes); made in house; host or cells: E. coli BL21 DE3 pLysE (pET14b)

Messa10K cells [2] = settings: cited from earlier work
Messa10K cells [3] = settings: for efficiency of SIN vectors versus wt vectors / plateau of maximum mortality: gemcitabine; for efficiency of SIN vectors versus wt vectors: Messa 10K, data not shown
Procedure: Methods to measure sensitivity of a cell, such as a eukaryotic cell are known to the skilled in the art. In one example, cells were transduced with a vector comprising for example the mutant “M36” or the wild-type hdCK. Therefore, 1×10^6 cells were contacted with 1 ml of 1:5 diluted viral vectors rescued from the isolated clones. Transduced cells were selected, for example, by adding puromycin 24 h after transduction using 0.6 μg/ml to HEK-293T cells, 0.6 μg/ml to HEK-293T-CD4^+ cells, 0.5 μg/ml to Messa10K cells. The transduced cells were then for example seeded at 5,000 cells per well in a 96-well plate and grown overnight at 37° C. Typically, two rows were used for each population. 12 h after seeding, increasing concentrations of for example gemcitabine (0-400 nM or […]), or araC (0-10 mM) were added to each well and left in culture for further 72 h. Cell viability was measured by MTT test (CellTiter 96 Non-Radioactive Cell Proliferation Assay, Promega) and the number of living cells in each well was evaluated by measuring the OD at 570 nm. For each population, the fraction of living cells was calculated as OD570 concentration X Gem/OD570 concentration 0 Gem, to estimate the sensitivity of the population to the prodrug.
Tests of sensitivity to anticancer drugs. Cells were seeded at 5000 cells per well in a 96-well plate and grown overnight at 37° C. Two rows were used for each population. 12 h after seeding, increasing concentrations of Gemcitabine (0-400 nM or 0-100 μM), or AraC (0-10 mM) were added to each well and left in culture for further 72 h. Cell viability was measured by MTT test (CellTiter 96 Non-Radioactive Cell Proliferation Assay, Promega) and the number of living cells in each well was evaluated by measuring the OD at 570 nm. For each population, the fraction of alive cells was calculated as OD570 concentration X Gem/OD570 concentration 0 Gem, to estimate the sensitivity of the population to the prodrug. Tests of sensitivity to antiviral drugs. Viral vectors were generated by transfection of HEK-293T cells with 10 μg of pCMVAR8.91 plasmid, 5 μg of pHCMV-G plasmid, and 10 μg of genomic plasmid SDY-dCK (described in Rossolillo et al. 2012) encoding either for the wild type sequence of the human dCK or the M36 variant. Transduction was performed on 1×10^6 HEK-293T-CD4+ cells with viral vectors. Transduced cells were selected in the presence of 0.6 μg/ml of puromycin, added 24 h after transduction. 50 to 200 individual puromycin-resistant clones were pooled and expanded obtaining the polyclonal wt-dCK cell population (wtdCK-pcP, for wt dCK polyclonal population) and the […] cell population (M36-pcP). Vectors for challenging infection in the presence of antiviral drugs were generated by transfection with 10 μg of pTopo plasmid encoding for the HIV envelope ADA (ref, plus Hamoudi 2013), 5 μg of pHCMV-G plasmid, and 10 μg of genomic plasmid SDY-Luc, which is a variant of the pSDY plasmid encoding for the firefly luciferase. These viruses were used to transduce 1×10^6 HEK-293T-CD4+-wtdCK or HEK-293T-CD4+-M36 cells. Viral infection was then monitored 48 hours after transduction. For this the medium was removed, the cells were washed twice in PBS, lysed, centrifuged, and the supernatant was used to measure luciferase activity according to the manufacturer's protocol (Promega, Fitchburg, Wis., USA) with a Glomax luminometer (Promega, Fitchburg, Wis., USA). Western blot analyses. Messa10K cell lines expressing either the wt dCK or M36, both in the context of a proviral DNA with functional LTR or with an inactivated LTR were lysed in 1×RIPA buffer, and 30, 60, 120 μg of total protein (evaluated by Bradford) for each cell type and loaded on a 12% bis-tricine gel (Invitrogen).

human dCK [4] = experiment: Phosphorylation tests in vitro (NADH-based assay) with purified recombinant dCK proteins; type: biochemical; settings: FIG. 9B, G12 values from Rossolillo et al. 2012
Procedure: (§1) Methods to qualitatively and/or quantitatively evaluate phosphorylation of a compound, such as a nucleoside compound, are known to the skilled in the art. In one example, the efficiency of phosphorylation of a substrate such as the natural substrate deoxycytidine, or the prodrugs gemcitabine and AraC, is measured for example with the purified wild-type hdCK and the mutant “M36” in typically a NADH-based assay as described in (Agarwal K C. et al. 1978 Methods Enzymol 51: 483-490). Accordingly, the enzymes are typically assayed at, for example, room temperature at a concentration of 0.45 μM for dC, 0.3 μM for Gemcitabine, and 0.3 for AraC. dC is typically used at concentrations of 5 to 50 μM, Gemcitabine at concentrations of 20 μM to 1 mM, and araC is typically used at concentrations of 20μM to 0.5 mM. ATP is used typically at 4 mM.
(§2) Tests of sensitivity to anticancer drugs. […] Two rows were used for each population. […] Tests of sensitivity to antiviral drugs. […] Viral infection was then monitored 48 hours after transduction. […] Western blot analyses. […] Production and purification of recombinant dCK proteins. […] Phosphorylation tests in vitro. […] ATP was 4 mM. All experiments were performed in triplicate.
(§3) To characterise its biochemical properties M36 and, as a control, the wt dCK protein, were produced as recombinant, C-ter His tagged proteins in E. coli, purified and tested for their efficiency of phosphorylation in vitro. As it was the case for the G12 mutant (Rossolillo et al. 2012) also for M36 the substitutions present in the mutant led to a decrease in the Vmax of phosphorylation as function of the concentration of substrate, for both dC and for gemcitabine, but while the decrease is dramatic for the dC it is only modest for gemcitabine (FIGS. 8A-B).

human dCK [5] = target: T2, human dCK (Homo sapiens, UniProt P27707, E171K/E247K/L249M/S169N); experiment: as above; type: biochemical; settings: for Km compared to wt dCK / Kcat relative to wt dCK: FIG. 9A
T2 construct: His tag (C, cleaved yes); made in house; host or cells: E. coli BL21 DE3 pLysE (pET14b)
Procedure: as §1, §2, §3

[6] = tested on: HIV-derived vectors in HEK 293T/CD4+ cells; experiment: Tests of sensitivity to antiviral drugs: infection of hdCK-transduced cells by luciferase-encoding HIV-derived vectors; type: cell-based; settings: luciferase 48 hours after infection
Procedure: as §2
Firstly HEK 293T/CD4^+ cells were transduced at a low MOI of by the vector encoding the M36 variant and selection of the successfully transduced cells was performed using puromycin. The selected cell line was then transduced with lentiviral vectors, as described in Materials and Methods, encoding the luciferase gene and luciferase levels ere measured 48 hours after infection. A comparison with the level of luciferase detected in the parallel infection of control HEK 293T/CD4^+ cells expressing as a transgene the wt dCK gene was performed and the data plotted.

T2 sequence (P27707 whole entry S169N/E171K/E247K/L249M): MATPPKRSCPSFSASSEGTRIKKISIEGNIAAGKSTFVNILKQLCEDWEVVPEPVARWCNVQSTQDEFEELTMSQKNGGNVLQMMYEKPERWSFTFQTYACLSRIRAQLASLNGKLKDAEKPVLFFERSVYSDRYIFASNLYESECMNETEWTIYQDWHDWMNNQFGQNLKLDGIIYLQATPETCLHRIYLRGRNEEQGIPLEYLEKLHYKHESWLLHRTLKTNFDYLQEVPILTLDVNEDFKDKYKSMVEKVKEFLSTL
T1 sequence (P27707 whole entry E171K/E247K/L249M): as the sequence (P27707 whole entry S169N/E171K/E247K/L249M) above, with N169S counted along it

## G12: hdCK mutant comprising three mutations, Glu171Lys, Glu247Lys and Leu249Met, described in Rossolillo et al. 2012 and WO2011/058081
Human dCK [1]; substrate dC
  ability to phosphorylate dC with respect to the wild type enzyme: almost complete loss of ability
Human dCK [1]; substrate gemcitabine
  efficiency of phosphorylation of gemcitabine with respect to the wild type enzyme: almost unaltered
Messa10K cells [2]; cells originally resistant to gemcitabine (Messa10K)
  sensitization to gemcitabine: 300 fold
Messa10K cells [2]; gemcitabine, Messa10K
  sensitization effect relative to the one induced with the wild-type enzyme: 60 times
Messa10K cells [3]
  efficiency of SIN vectors versus wt vectors: more efficient

## M36: mutant human deoxycytidine kinase (hdCK) with mutations S169N, E171K, E247K and L249M; delivered as lentiviral transgene or recombinant protein
Human dCK [4]; natural substrate dC
  increase in Kcat M36 vs G12, factor: 9.5
  increase in Km M36 vs G12, factor: 3.5
Human dCK [4]; substrate gemcitabine
  ratio of Kcat M36 vs G12: 1
  ratio of Km M36 vs G12: 1
Human dCK [5]; natural substrate dC
  Km compared to wt dCK: reversed
Human dCK [5]; substrate AraC, FIG. 8C
  reduction of the Vmax of phosphorylation compared to wt dCK: very modest reduction
Human dCK [5]; substrate AraC
  Kcat relative to wt dCK: approximately 50%
  Km compared to wt dCK: increased
Human dCK [5]; substrate dC, FIG. 8A
  decrease in the Vmax of phosphorylation compared to wt dCK: dramatic
Human dCK [5]; substrate dC
  Kcat relative to wt dCK: approximately 50%
Human dCK [5]; substrate gemcitabine, FIG. 8B
  decrease in the Vmax of phosphorylation compared to wt dCK: only modest
Human dCK [5]; substrate gemcitabine
  Kcat relative to wt dCK: approximately 50%
  Km compared to wt dCK: increased
Messa10K cells [3]; AraC, FIG. 7B
  sensitisation to AraC with respect to control cells expressing exogenous wt dCK: strong sensitisation
Messa10K cells [3]; Messa10K, FIG. 1 and 2
  sensitisation phenotype to gemcitabine compared to G12: further improved sensitisation phenotype
Messa10K cells [3]; cells originally resistant to gemcitabine
  sensitization to gemcitabine: 900 fold
Messa10K cells [3]; cytarabine (AraC)
  sensitization of cells to cytarabine (AraC), factor: 10,000
Messa10K cells [3]; fludarabine, FIG. 7A
  sensitisation of Messa 10K cells to fludarabine: no significant sensitisation
Messa10K cells [3]
  efficiency of SIN vectors versus wt vectors: more efficient
Messa10K cells [3]; SIN vector (inactivated LTR)
  plateau of maximum mortality: 80%
Messa10K cells [3]; wt LTR vector
  plateau of maximum mortality: 60%
[6]; 3TC, FIG. 6
  lower infectivity versus cells expressing wt dCK: ~2 fold
[6]; ddC, FIG. 5
  resistance to infection versus cells expressing wt dCK: no significant increase in resistance
